Among the data in patent US20240240140A1 are QUANTI-Blue SEAP assay using HEK293/mTLR5 cell line (TLR5 stimulation relative to FLA-ST) values, retold here.

This assay deals with mouse TLR5 (toll-like receptor 5) expressed on HEK293/mTLR5 cell line (mouse) (UniProt Q9JLF7). The experiment in a line: cell-based or functional assay.
UniProt Q9JLF7, sequence (Q9JLF7 27-859): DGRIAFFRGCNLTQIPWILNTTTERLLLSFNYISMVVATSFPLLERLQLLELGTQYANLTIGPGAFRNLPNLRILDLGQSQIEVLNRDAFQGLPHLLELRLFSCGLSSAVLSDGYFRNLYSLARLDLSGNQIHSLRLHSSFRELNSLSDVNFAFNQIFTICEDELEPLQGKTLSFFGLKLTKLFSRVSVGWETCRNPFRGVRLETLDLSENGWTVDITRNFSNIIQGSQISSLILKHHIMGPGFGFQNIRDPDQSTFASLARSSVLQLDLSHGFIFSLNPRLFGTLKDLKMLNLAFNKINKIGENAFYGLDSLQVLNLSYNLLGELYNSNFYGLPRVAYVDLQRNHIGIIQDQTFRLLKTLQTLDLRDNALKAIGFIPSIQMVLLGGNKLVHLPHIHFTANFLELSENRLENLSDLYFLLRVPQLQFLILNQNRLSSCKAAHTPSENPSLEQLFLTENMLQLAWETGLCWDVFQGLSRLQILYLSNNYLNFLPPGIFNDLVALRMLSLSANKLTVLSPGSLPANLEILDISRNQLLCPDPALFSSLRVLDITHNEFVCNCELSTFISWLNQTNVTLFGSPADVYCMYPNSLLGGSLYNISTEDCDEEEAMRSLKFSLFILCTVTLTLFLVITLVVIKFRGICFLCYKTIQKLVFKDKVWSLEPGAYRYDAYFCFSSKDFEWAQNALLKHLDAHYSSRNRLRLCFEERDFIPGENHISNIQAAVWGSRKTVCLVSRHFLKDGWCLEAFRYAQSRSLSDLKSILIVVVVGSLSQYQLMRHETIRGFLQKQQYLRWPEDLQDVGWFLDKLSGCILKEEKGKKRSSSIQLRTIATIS

As for “sgFliC (Salmonella gallinarum-derived FliC, filament structural protein, expressed from psgFliC and secreted by attenuated Salmonella gallinarum SG4052) (from UniProt Q06972 1-494) (ligand)”, the QUANTI-Blue SEAP assay using HEK293/mTLR5 cell line (TLR5 stimulation relative to FLA-ST) was 2 fold.
